T1: EYFP-HilD (Salmonella enterica, UniProt P0CL08 1-309)
T1 construct: HilD of Salmonella enterica, UniProt P0CL08; eyfp was ligated (BamHI/EheI) into the SUMO-HilD expression vector that gives the full-length HilD; EYFP is the fluorescent label used for MST detection; also called EYFP-HilD fusion protein; source: E. coli C41(DE3), purified (Ni-NTA, SUMO protease cleavage, second Ni-NTA, SEC on Superdex 200); not shown: His6-SUMO, N-terminal, cleaved; EYFP, …
T1 sequence: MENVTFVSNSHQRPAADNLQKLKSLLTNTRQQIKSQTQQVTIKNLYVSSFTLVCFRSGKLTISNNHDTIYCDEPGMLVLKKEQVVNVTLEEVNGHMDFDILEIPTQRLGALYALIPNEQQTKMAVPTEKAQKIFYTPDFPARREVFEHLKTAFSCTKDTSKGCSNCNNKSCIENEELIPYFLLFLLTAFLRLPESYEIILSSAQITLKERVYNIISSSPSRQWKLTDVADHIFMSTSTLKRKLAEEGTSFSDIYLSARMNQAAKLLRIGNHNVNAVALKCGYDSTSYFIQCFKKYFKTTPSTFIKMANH

B1: HilD (full-length, unfused) (natural protein)
chain: T1 sequence
notes: HilD, AraC/XylS transcription regulator of Salmonella enterica, UniProt P0CL08; Exclusively a homodimer alone by SEC-MALS; a single copy stands in the 1:1 complex with HilE; also called unlabeled HilD; unfused HilD; source: E. coli C41(DE3), purified (Ni-NTA, SUMO protease cleavage, second Ni-NTA, SEC); not shown: His6-SUMO, N-terminal, cleaved
B2: HilD NTD (residues 7-206) (domain or fragment)
chain: VSNSHQRPAADNLQKLKSLLTNTRQQIKSQTQQVTIKNLYVSSFTLVCFRSGKLTISNNHDTIYCDEPGMLVLKKEQVVNVTLEEVNGHMDFDILEIPTQRLGALYALIPNEQQTKMAVPTEKAQKIFYTPDFPARREVFEHLKTAFSCTKDTSKGCSNCNNKSCIENEELIPYFLLFLLTAFLRLPESYEIILSSAQIT
notes: a His6 tag stands in place of the first six residues of HilD; No cleavage of the His6 tag is described (no protease site, purification goes from Ni-NTA to SEC); also called HilD_(7-206) (NTD); His6-tagged HilD NTD construct; source: E. coli C41(DE3), purified (Ni-NTA, SEC on Superdex 75); not shown: His6, N-terminal, kept

Assays:
[1] = biological target: T1, EYFP-HilD; assay: MST; homodimerization: unlabeled HilD (3.05 nM to 100 μM) titrated against 50 nM EYFP-HilD; 25 °C, 0.05% Pluronic F-127, protein storage buffers; dimer to monomers; details: both partners purified
[2] = biological target: the molecule itself; assay: SEC-MALS; Superdex 75 Increase 10/300 GL, 50 mM NaH2PO4 pH 7.0, 200 mM NaCl, 0.5 ml/min; protein concentrations of 100 μM (Fig. 4, D and E)
[3] = biological target: T1, EYFP-HilD; assay: MST; homodimerization: unlabeled HilD titrated against EYFP-HilD preincubated with 1% DMSO; MST on-time 1.5 s, 25 °C; details: both partners purified

Binder | Kd [1] [µM] | stoichiometry N [2] | Kd [3] [µM]
B1 | 3.85 ± 0.63 | 2 | 4.33 ± 0.72
B2 | – | 2 | –
